Key:
[1] = target: T cell surface antigens CTLA4 and PD-1; test: flow cytometry, PHA-stimulated CD4+ T cells; Ab 100 nM
PD-1-mFc [2] = target: T1, PD-1-mFc (mouse, UniProt Q15116 25-170 (human entry), limits assumed); test: competition ELISA, coat PD-1-mFc 0.2 ug/mL, PDL1-hFc 2 ug/ml
T1 construct: extracellular domain; a TEV site is implied; not shown: mouse IgG Fc fragment (mFc)

[3] = target: T2, PD-1 antigen obtained by digesting PD-1-mFc with TEV protease (UniProt Q15116 25-170, limits assumed, biotin-labelled (sites not given)); test: BLI (Fortebio), biotin-PD-1 on SA sensor, antibody in solution
T2 construct: extracellular domain; also called antigen PD-1
Experimental: The antibodies were diluted with PBST from 200 nM down three fold each time. The dissociation was also in PBST.

PD-1-mFc [4] = target: T1, PD-1-mFc; test: indirect ELISA, coat PD-1-mFc 0.5 ug/mL
Experimental: TMB (Neogen, 308177) was added to react for 5 mins. The absorbance was read at the wavelength of 450 nm in a microplate reader.

[5] = target: T3, CTLA4 antigen obtained by digesting CTLA4-mFc with TEV protease (human, UniProt P16410 36-161); test: BLI (Fortebio), antibody amine-coupled on AR2G sensor, CTLA4 in solution
T3 construct: extracellular domain; Biotin-labelled when immobilised on SA sensors; also called CTLA4 protein; antigen CTLA4
Experimental: 1.2 Antibody 4G10 was immobilized to AR2GBiosensors by amine coupling method, and then blocked with ethanolamine and equilibrating in PBST, and then bound to CTLA4. CTLA4 was double gradient diluted with PB ST to the concentrations of 268.1, 134.1, 67, 33.5, 16.8, 8.38, 4.19, and 0 nM. The dissociation was also in PBST.

T2 sequence (Q15116 25-170 limits assumed): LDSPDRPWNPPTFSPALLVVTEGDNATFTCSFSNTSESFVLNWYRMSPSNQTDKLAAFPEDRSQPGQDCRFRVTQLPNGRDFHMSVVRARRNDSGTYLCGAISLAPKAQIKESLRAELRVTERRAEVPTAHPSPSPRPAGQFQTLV
T3 sequence (P16410 36-161): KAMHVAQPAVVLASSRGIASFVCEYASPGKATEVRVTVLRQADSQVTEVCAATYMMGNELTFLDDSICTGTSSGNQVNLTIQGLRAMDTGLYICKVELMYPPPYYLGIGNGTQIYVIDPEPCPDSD
T1 sequence (Q15116 25-170 limits assumed): as the sequence (Q15116 25-170 limits assumed) above

## hIgG (antibody)
[1]
  MFI (fluorescence intensity): 10.2

B1: monoclonal antibody 14C12 (antibody, V domains shown)
VH: EVKLVESGGGLVKPGGSLKLSCAASGFAFSSYDMSWVRQTPEKRLEWVATISGGGRYTYYPDSVKGRFTISRDNARNTLYLQMSSLRSEDTALYYCANRYGEAWFAYWGQGTLVTVSA
VL: DIKMTQSPSSMYASLGERVTFTCKASQDINTYLSWFQQKPGKSPKTLIYRANRLVDGVPSRFSGSGSGQDYSLTISSLEYEDMGIYYCLQYDEFPLTFGAGTKLEL
notes: Mouse hybridoma antibody; also called antibody secreted by hybridoma LT003 (PD-1-14C12)
PD-1-mFc [2]
  EC50: 0.853 nM
[3]
  Kd: 0.0181 nM
  koff: 6.12e-06 s⁻¹
  kon: 338000 M⁻¹ s⁻¹
PD-1-mFc [4]
  EC50: 0.175 nM

B2: monoclonal antibody 4G10 (antibody, V domains shown)
VH: QVKLQESGPELVKPGASMKISCKASGYSFTGYTMNWVKQSHGKNLEWIGLINPYNNITNYNQKFMGKATFTVDKSSSTAYMELLRLTSEDSGVYFCARLDYRSYWGQGTLVTVSA
VL: QAVVTQESALTTSPGETVTLTCRSSTGAVTTSNFANWVQEKPDHLFTSLIGGTNNRAPGVPARFSGSLIGDKAALTITGAQTEDEAIYFCALWYSNHWVFGGGTKLTVLG
notes: Mouse hybridoma antibody purified on protein A; also called antibody secreted by hybridoma LT002 (CTLA4-4G10)
[5]
  Kd: 0.301 nM
  koff: 0.000114 s⁻¹
  kon: 378000 M⁻¹ s⁻¹

Reference: US20190185569A1 (published 2019)
